Reference: publication PMC11100465, “EFhd2 co-aggregates with monomeric and filamentous tau in vitro” (Frontiers in Neuroscience, 2024)

Biological target: T1, full-length human tau (hTau40) (human, UniProt P10636-8 1-441)
T1 construct: plasmid PT7CHT40; The same construct was used as monomer (no inducer) and as filaments or oligomers induced with 75 uM arachidonic acid; No tag removal is described; also called hTau40^m (incubated without inducer, monomeric); hTau40^ARA (incubated with arachidonic acid, filaments and oligomers); source: E. coli BL21, purified (boiled lysate, HIS-select Nickel resin)
Test: ELISA; nondenaturing sandwich ELISA; Tau13 capture antibody, anti-EFhd2 detection antibody; 2 uM hEFhd2 and 2 uM hTau40 co-incubated overnight at room temperature without arachidonic acid (hTau40^m/hEFhd2), then diluted in 1X PBS
Details: both partners purified

T1 sequence (P10636 other isoform, or with tags, fused parts or gaps): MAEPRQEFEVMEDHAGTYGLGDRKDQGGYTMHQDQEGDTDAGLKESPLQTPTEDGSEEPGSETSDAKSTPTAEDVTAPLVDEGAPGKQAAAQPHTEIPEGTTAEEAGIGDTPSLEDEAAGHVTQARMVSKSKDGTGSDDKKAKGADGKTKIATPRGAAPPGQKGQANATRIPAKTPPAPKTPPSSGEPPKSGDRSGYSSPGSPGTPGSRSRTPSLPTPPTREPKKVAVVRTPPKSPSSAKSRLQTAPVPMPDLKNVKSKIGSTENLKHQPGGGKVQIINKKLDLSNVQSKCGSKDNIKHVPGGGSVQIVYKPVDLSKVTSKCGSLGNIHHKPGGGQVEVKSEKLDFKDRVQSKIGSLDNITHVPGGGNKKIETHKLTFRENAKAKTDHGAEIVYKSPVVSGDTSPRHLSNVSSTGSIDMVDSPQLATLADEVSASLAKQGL

- binding result: binds
B1: recombinant human EFhd2 (natural protein, UniProt Q96C19 1-240, looked up)
chain: MATDELATKLSRRLQMEGEGGGETPEQPGLNGAAAAAAGAPDEAAEALGSADCELSAKLLRRADLNQGIGEPQSPSRRVFNPYTEFKEFSRKQIKDMEKMFKQYDAGRDGFIDLMELKLMMEKLGAPQTHLGLKNMIKEVDEDFDSKLSFREFLLIFRKAAAGELQEDSGLCVLARLSEIDVSSEGVKGAKSFFEAKVQAINVSSRFEEEIKAEQEERKKQAEEMKQRKAAFKELQSTFK
notes: wild type human EFhd2; No tag removal is described; also called hEFhd2; EF-hand domain 2 protein; source: E. coli BL21 (DE3), purified (HIS-select Nickel resin)
